Experimental data published in paper PMC8797792.
pIC50: −log10 of the molar value.

Biological target: GST-Fbw7 (residues 263 to 707)-Skp1 complex (UniProt Q969H0)
Test: AlphaScreen or HTRF

pIC50: 5.88
Substance: Myc T58 degron peptide, monophosphorylated (pT58)
